Assay results from patent US9119839B2, “Cancer treatment” (Pfizer Inc., priority 2009, dated 2015).

B1: tremelimumab (antibody, listed as Homo sapiens)
VH: GVVQPGRSLRLSCAASGFTFSSYGMHWVRQAPGKGLEWVAVIWYDGSNKYYADSVKGRFTISRDNSKNTLYLQMNSLRAEDTAVYYCARDPRGATLYYYYYGMDVWGQGTTVTVSSASTKGPSVFPLAPCSRSTSESTAALGCLVKDYFPEPVTVSWNSGALTSGVH
VL: PSSLSASVGDRVTITCRASQSINSYLDWYQQKPGKAPKLLIYAASSLQSGVPSRFSGSGSGTDFTLTISSLQPEDFATYYCQQYYSTPFTFGPGTKVEIKRTVAAPSVFIFPPSDEQLKSGTASVVCLLNNFYPREAKV
notes: anti-CTLA4 monoclonal IgG2 antibody 11.2.1; Arm A of trial A3671009

Key:
[1] = test system: previously-untreated, unresectable melanoma; assay: Clinical trial A3671009, randomized multicenter Phase 3 study of tremelimumab versus chemotherapy: overall survival by baseline serum CRP category; format: in vivo, human; conditions: for Median OS: tremelimumab 15 mg/kg i.v. every 90 days (Arm A) or dacarbazine/temozolomide (Arm B); for HR (hazard ratio for survival for the two treatment arms): CTLA4 blockade versus chemotherapy
Method: Patients randomized to Arm A received intravenous tremelimumab at a dose of 15 mg/kg every 90 days for up to four doses. Patients randomized to Arm B received either dacarbazine at 1000 mg/m^2 or temozolomide at 200 mg/m^2 at the discretion of the investigator. The primary objective of the trial was to compare overall survival of patients in the two treatment arms. Objective tumor response was a secondary endpoint. In the A3671009 trial, serum CRP was measured in most patients before initiation of treatment. In the analysis described below, baseline CRP refers to the result of a CRP assay performed on serum drawn from patients up to 14 days prior randomization into the study. […] The hazard ratio of 1.48 represents a 48% improvement in overall survival in favor of patients who received CTLA4 blockade.

[2] = test system: CRP; conditions: treatment with IL-6 / IL-6 receptor inhibitor; cited from earlier work
[3] = patients with baseline CRP > 1.5 ULN
[4] = patients with baseline CRP ≦ 1.5 ULN

Molecule | Median OS [1, 3] [months] | Median OS [1, 4] [months] | effect on CRP levels [2] | HR (hazard ratio for survival for the two treatment arms) ([1]; baseline CRP > 1.5 ULN, P-value 0.3076) | HR (hazard ratio for survival for the two treatment arms) ([1]; baseline CRP ≦ 1.5 ULN, P-value 0.0037) | improvement in overall survival ([1]; low baseline CRP, in favor of CTLA4 blockade versus chemotherapy) [%] | difference in overall survival between treatment groups ([1]; patients with high baseline CRP, versus chemotherapy (FIG. 2)) | difference in overall survival between treatment groups ([1]; patients with low baseline CRP, versus chemotherapy (FIG. 1))
dacarbazine or temozolomide [Chemotherapy, reference compound] | 6.1 | 12.7 |  |  |  |  |  | 
tocilizumab |  |  | reduce CRP levels |  |  |  |  | 
B1 | 6.1 | 19.1 |  | 0.86 | 1.48 | 48 | no apparent difference | clinically meaningful and statistically significant difference
